These results are taken from patent US20030105278A1 (MERK, published 2003).

Bridges are numbered along the chain shown (N, C = ends). Where no end group is shown, it is not given here. [ ]: non-standard residue; d: D form. Ava = NCCCCC(=O)O

B1: mammalian MCH (SEQ. ID. NO. 11) (peptide)
peptide: DFDMLRCMLGRVYRPCWQV
modifications: disulfide 7-16
B2: truncated MCH analog SEQ. ID. NO. 9: Ac-Cys-Met-Leu-Gly-Arg-Val-Tyr-Arg-Pro-Cys-amide (peptide)
peptide: Ac-CMLGRVYRPC-NH2
modifications: disulfide 1-10
SMILES: CSCC[C@@H]1NC(=O)[C@@H](NC(C)=O)CSSC[C@@H](C(N)=O)NC(=O)[C@@H]2CCCN2C(=O)[C@H](CCCNC(=N)N)NC(=O)[C@H](Cc2ccc(O)cc2)NC(=O)[C@H](C(C)C)NC(=O)[C@H](CCCNC(=N)N)NC(=O)CNC(=O)[C@H](CC(C)C)NC1=O
B3: truncated MCH analog SEQ. ID. NO. 10: Asp-Phe-Asp-Met-Ieu-Arg-Cys-Met-Ieu-Gly-Arg-Val-Tyr-Arg-Pro-Cys-amide (peptide)
peptide: DFDMLRCMLGRVYRPC-NH2
modifications: disulfide 7-16; N-terminus assumed
SMILES: CSCC[C@@H]1NC(=O)[C@@H](NC(=O)[C@H](CCCNC(=N)N)NC(=O)[C@H](CC(C)C)NC(=O)[C@H](CCSC)NC(=O)[C@H](CC(=O)O)NC(=O)[C@H](Cc2ccccc2)NC(=O)[C@@H](N)CC(=O)O)CSSC[C@@H](C(N)=O)NC(=O)[C@@H]2CCCN2C(=O)[C@H](CCCNC(=N)N)NC(=O)[C@H](Cc2ccc(O)cc2)NC(=O)[C@H](C(C)C)NC(=O)[C@H](CCCNC(=N)N)NC(=O)CNC(=O)[C@H](CC(C)C)NC1=O
B4: truncated MCH analog SEQ. ID. NO. 8: Ac-Arg-Cys-Met-Leu-Gly-Arg-Val-Phe-Arg-Pro-Cys-Tyr-amide (peptide)
peptide: Ac-RCMLGRVFRPCY-NH2
modifications: disulfide 2-11
SMILES: CSCC[C@@H]1NC(=O)[C@@H](NC(=O)[C@H](CCCNC(=N)N)NC(C)=O)CSSC[C@@H](C(=O)N[C@@H](Cc2ccc(O)cc2)C(N)=O)NC(=O)[C@@H]2CCCN2C(=O)[C@H](CCCNC(=N)N)NC(=O)[C@H](Cc2ccccc2)NC(=O)[C@H](C(C)C)NC(=O)[C@H](CCCNC(=N)N)NC(=O)CNC(=O)[C@H](CC(C)C)NC1=O
B5: MCH analog SEQ. ID. NO. 12: Ac-Cys-Met-Leu-Gly-Arg-Val-Tyr-Arg-Pro-Cys-Trp-Gln-Val (peptide)
peptide: Ac-CMLGRVYRPCWQV
modifications: disulfide 1-10 (inferred)
B6: MCH analog SEQ. ID. NO. 14: Asp-Phe-Ala-Met-Leu-Arg-Cys-Met-Leu-Gly-Ara-Val-Phe-Arg-Pro-Cys-Trp-Gin-Tyr (peptide)
peptide: DFAMLRCMLGRVFRPCWQY
modifications: disulfide 7-16 (inferred)
B7: truncated MCH analog SEQ. ID. NO. 7: Ac-Arg-Cys-Met-Leu-Gly-Arg-Val-Tyr-Arg-Pro-Cys-amide (peptide)
peptide: Ac-RCMLGRVYRPC-NH2
modifications: disulfide 2-11 (inferred)
notes: Corresponds to MCH positions 6-16; also called ID; NO; 7 MCH analog
B8: MCH analog SEQ. ID. NO. 15 (D-Arg^6) (peptide)
peptide: XCMLGRVYRPC
modifications: D-Arg^6; N-terminal acetyl, C-terminal amide, Cys-Cys disulfide as in SEQ. ID. NO. 7
notes: ID; NO; 7 peptide; MCH position numbering
B9: MCH analog SEQ. ID. NO. 25 (N-Me-Nle^8) (peptide)
peptide: RCXLGRVYRPC
modifications: N-methyl-norleucine at position 8; N-terminal acetyl, C-terminal amide, Cys-Cys disulfide as in SEQ. ID. NO. 7
notes: as for B8
B10: MCH analog SEQ. ID. NO. 27 (Sar^10) (peptide)
peptide: RCMLXRVYRPC
modifications: sarcosine at position 10; N-terminal acetyl, C-terminal amide, Cys-Cys disulfide as in SEQ. ID. NO. 7
notes: as for B8
B11: MCH analog SEQ. ID. NO. 62 (position 13: Phe) (peptide)
peptide: Ac-RCMLGRVFRPC-NH2
modifications: disulfide 2-11
SMILES: CSCC[C@@H]1NC(=O)[C@@H](NC(=O)[C@H](CCCNC(=N)N)NC(C)=O)CSSC[C@@H](C(N)=O)NC(=O)[C@@H]2CCCN2C(=O)[C@H](CCCNC(=N)N)NC(=O)[C@H](Cc2ccccc2)NC(=O)[C@H](C(C)C)NC(=O)[C@H](CCCNC(=N)N)NC(=O)CNC(=O)[C@H](CC(C)C)NC1=O
notes: as for B8
B12: MCH analog SEQ. ID. NO. 64 (position 13: His) (peptide)
peptide: Ac-RCMLGRVHRPC-NH2
modifications: disulfide 2-11
SMILES: CSCC[C@@H]1NC(=O)[C@@H](NC(=O)[C@H](CCCNC(=N)N)NC(C)=O)CSSC[C@@H](C(N)=O)NC(=O)[C@@H]2CCCN2C(=O)[C@H](CCCNC(=N)N)NC(=O)[C@H](Cc2c[nH]cn2)NC(=O)[C@H](C(C)C)NC(=O)[C@H](CCCNC(=N)N)NC(=O)CNC(=O)[C@H](CC(C)C)NC1=O
notes: as for B8
B13: MCH analog SEQ. ID. NO. 63 (position 13: Trp) (peptide)
peptide: Ac-RCMLGRVWRPC-NH2
modifications: disulfide 2-11
SMILES: CSCC[C@@H]1NC(=O)[C@@H](NC(=O)[C@H](CCCNC(=N)N)NC(C)=O)CSSC[C@@H](C(N)=O)NC(=O)[C@@H]2CCCN2C(=O)[C@H](CCCNC(=N)N)NC(=O)[C@H](Cc2c[nH]c3ccccc23)NC(=O)[C@H](C(C)C)NC(=O)[C@H](CCCNC(=N)N)NC(=O)CNC(=O)[C@H](CC(C)C)NC1=O
notes: as for B8
B14: MCH analog SEQ. ID. NO. 71 (D-Arg^6,Ava^9,10) (peptide)
peptide: Ac-[dR]CM[Ava][Ava]RVYRPC-NH2
modifications: disulfide 2-11; not fully specified
notes: as for B8
B15: MCH analog SEQ. ID. NO. 72 (Ava^14,15) (peptide)
peptide: Ac-RCMLGRVY[Ava][Ava]C-NH2
modifications: disulfide 2-11
notes: as for B8
B16: MCH analog SEQ. ID. NO. 70 (Ava^9,10) (peptide)
peptide: Ac-RCM[Ava][Ava]RVYRPC-NH2
modifications: disulfide 2-11; not fully specified
notes: as for B8
B17: MCH analog SEQ. ID. NO. 74 (D-Pro^10,Ava^14,15) (peptide)
peptide: RCMLXRVYXXC
modifications: not fully specified; D-Pro^10; Ava (5-aminopentanoic acid) in place of positions 14,15; N-terminal acetyl, C-terminal amide, Cys-Cys disulfide as in SEQ. ID. NO. 7
notes: as for B8
B18: MCH analog SEQ. ID. NO. 77 (Nle^8) (peptide)
peptide: RCXLGRVYRPC
modifications: norleucine at position 8; N-terminal acetyl, C-terminal amide, Cys-Cys disulfide as in SEQ. ID. NO. 7
notes: as for B8
B19: MCH analog SEQ. ID. NO. 76 (Ava^9,10,Ava^14,15) (peptide)
peptide: Ac-RCM[Ava][Ava]RVY[Ava][Ava]C-NH2
modifications: disulfide 2-11; not fully specified

As a reminder, the EC50 is the concentration giving half of the maximal effect. A word on the IC50: it is the concentration that gives 50% inhibition.

T2 sequence (Q99705 whole entry): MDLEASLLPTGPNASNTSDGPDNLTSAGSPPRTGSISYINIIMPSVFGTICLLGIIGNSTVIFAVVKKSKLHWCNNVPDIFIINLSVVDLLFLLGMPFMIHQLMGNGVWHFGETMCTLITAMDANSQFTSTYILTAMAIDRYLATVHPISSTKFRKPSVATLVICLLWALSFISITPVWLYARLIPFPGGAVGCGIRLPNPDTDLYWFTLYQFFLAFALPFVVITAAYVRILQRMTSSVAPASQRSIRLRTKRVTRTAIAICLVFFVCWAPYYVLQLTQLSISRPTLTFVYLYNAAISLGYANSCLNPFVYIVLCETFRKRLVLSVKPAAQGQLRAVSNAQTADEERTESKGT
T1 sequence (Q99705 whole entry): as above
Chain of human MCH receptor (membranes from a stable CHO or HEK-293 cell line) (human) (Q99705 whole entry): as above

The first assay has as its target T1, human MCH receptor expressed from the open reading frame cDNA SEQ. ID. NO. 1 in 293-AEQ17 cells (human, UniProt Q99705 1-353). The assay is described as follows: cell-based or functional assay.
B1: the “% Activation at 10 µM” value is 100%.
With B2, the “% Activation at 10 µM” value worked out at 74% and the “EC50” value amounted to 300 nM.
In the case of B3, the “% Activation at 10 µM” value is 99%.
B4: the “% Activation at 10 µM” value stood at 123% and the “EC50” value stood at 36 nM.
Turning to B5, the “% Activation at 10 µM” value was 3% and the “EC50” value worked out at 492 nM.
For B6, the “% Activation at 10 µM” value came to 62.2%.
As to B7, the “% Activation at 10 µM” value amounted to 123% and the “EC50” value worked out at 18 nM.

The next assay has as its target T1, human MCH receptor expressed from the …. The assay is described as follows: cell-based or functional assay. This is another data set of the same source.
B1 gave an Activation % of 100%.
In the case of B8, the Activation % worked out at 86% and a half-maximal effect (EC50) was put at 45 nM.
On to B7, for which the Activation % was 99% and the half-maximal effective concentration (EC50) is 20 nM.

The target is the same in the next assay. Kind of assay: cell-based or functional assay. This is another data set of the same source.
Regarding B1, the Activation % amounted to 100%.
As for B9, the Activation % turned out to be 110% and the concentration giving a half-maximal response (EC50) amounted to 20 nM.
Turning to B7, the Activation % was found to be 99% and the response was half-maximal at 20 nM (EC50).
B10 returned an Activation % of 95%.

A further assay shares this target. Kind of assay: cell-based or functional assay. This is another data set of the same source.
B1 yielded an Activation % of 100%.
As to B7, the Activation % turned out to be 99% and the “EC50” value came to 20 nM.

The target is the same in another assay. The assay is described as follows: cell-based or functional assay. The source holds these as a separate data set.
B1 showed an Activation % of 100%.
As for B7, the Activation % was 99% and a half-maximal effect (EC50) was put at 20 nM.

Another assay shares this target. The assay is described as follows: cell-based or functional assay. The source holds these as a separate data set.
Consider B1, for which the Activation % turned out to be 100%.
In the case of B7, the Activation % was 99% and the midpoint of the response, the EC50, lay at 20 nM.
Consider B11, for which the Activation % came out at 96% and a half-maximal effect (EC50) was put at 46 nM.
For B12 the same measures were 66% and 3400 nM.
With B13, the Activation % is 83% and the response was half-maximal at 890 nM (EC50).

The next assay shares this target. The assay is described as follows: cell-based or functional assay. The source holds these as a separate data set.
The molecule B1 returned an Activation % of 100%.
Molecule B14 returned an Activation % of 72%.
With B15, the Activation % was determined as 75% and the “EC50” value is 406 nM.
B16 yielded an Activation % of 82%.
With B7, the Activation % turned out to be 99% and it took 20 nM to reach a half-maximal effect (EC50).
Regarding B17, the Activation % was 3%.
Turning to B18, the Activation % was determined as 105%.
B19: the Activation % was 3% and the “EC50” value was > 10000 nM.

Another assay addresses human MCH receptor (membranes from a stable CHO or HEK-293 cell line) (human) (UniProt Q99705). The assay is described as follows: competition vs [125I]-human MCH (Phe13,Tyr19); human MCH receptor cell membranes (Example 3).
For B19, the IC50 is 50 nM.

A further assay concerns the target T2, human MCH receptor (membranes from a stable CHO or HEK-293 cell line) (human, UniProt Q99705 1-353).
T2 construct: whole, on cells; also called cloned human MCH receptor (CHO clone)
Kind of assay: SPA competition vs [125I]-human MCH (Phe13,Tyr19); human MCH receptor cell membranes.
B2: the IC50 came to 1.6 nM.
B3: the IC50 turned out to be 0.3 nM.
Consider B4, for which the IC50 was determined as 0.16 nM.
In turn, B5 came in with an IC50 of 6.4 nM.
Molecule B6 came in with an IC50 of 0.5 nM.
For the molecule B7, the IC50 stood at 0.12 nM.

The next assay addresses T2, human MCH receptor (membranes from a …). The assay is described as follows: competition vs [125I]-human MCH (Phe13,Tyr19); human MCH receptor cell membranes (Example 3).
B8 yielded an IC50 of 0.46 nM.
Same read-out and setting: with B7 the figure was 0.5 nM.

Another assay has the same target. Described as above. The source holds these as a separate data set.
With B9, the IC50 was 0.16 nM.
B7 displayed an IC50 of 1.4 nM.
Same read-out and setting: with B10 the figure was 2.3 nM.

The next assay shares this target. The assay is described as above. This is another data set of the same source.
With B7, the IC50 worked out at 1.4 nM.

A further assay shares this target. The description is as above. The source holds these as a separate data set.
As to B7, the IC50 stood at 0.5 nM.

For a further assay the target is unchanged. The assay is described as above. The source holds these as a separate data set.
Regarding B7, the IC50 was 1.4 nM.
The same measure, in the same setting: in the case of B11 it was 1 nM.
As for B12, the half-inhibitory concentration (IC50) was found to be 13.1 nM.
B13 had an IC50 of 3.8 nM.

Another assay shares this target. The description is as above. The source holds these as a separate data set.
B14 gave an IC50 of 3.7 nM.
In turn, B15 gave an IC50 of 6.2 nM.
With B16, the IC50 amounted to 3.7 nM.
In turn, B7 yielded an IC50 of 1.4 nM.
Take B17: the IC50 came to 700 nM.
Consider B18, for which the IC50 worked out at 0.5 nM.
